Biological target: recombinant conformational HCV E2 antigen (HCV genotype 1a) (hepatitis C virus, HCV1 (genotype 1a)) (UniProt P26664)
Assay: NOB assay: control Fab pre-mixed with E2 1a, E2 binding to MOLT-4 cells by flow cytometry; 50% reduction titer, Exp. I

Chain of recombinant conformational HCV E2 antigen (HCV genotype 1a) (hepatitis C virus, HCV1 (genotype 1a)) (P26664 383-715): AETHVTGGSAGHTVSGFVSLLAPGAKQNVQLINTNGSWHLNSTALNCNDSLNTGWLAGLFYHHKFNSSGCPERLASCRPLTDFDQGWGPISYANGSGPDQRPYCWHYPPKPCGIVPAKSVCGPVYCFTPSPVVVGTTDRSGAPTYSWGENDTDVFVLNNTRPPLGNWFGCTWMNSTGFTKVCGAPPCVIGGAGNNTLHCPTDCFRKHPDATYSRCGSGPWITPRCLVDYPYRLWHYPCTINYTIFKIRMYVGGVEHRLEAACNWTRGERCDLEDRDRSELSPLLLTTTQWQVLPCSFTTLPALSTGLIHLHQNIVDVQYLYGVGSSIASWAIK

“negative control Fab clone b12 directed to HIV-1 envelope glycoprotein gp120” was tested, and the IC50 was > 10 µg/mL.

— patent US6747136
